Legend:
Type in all cases: cell-based
Micrococcus luteus = assay: Measurement of the bacteriostatic properties (CFU over time); conditions: for colonies formed (cfu): 18 μM (8 times MIC)
Procedure: A midlogarithmic phase culture of Micrococcus luteus in the “Poor Broth” medium defined above was incubated at 30° C. in the presence of the peptide or (as control) of water. The final concentration of the molecules tested is 8 times higher than the MIC. 20-μl alquots are collected at various time intervals and cultured on nutrient agar plate. The number of colonies formed (CFU) is determined after 24 hours of incubation at 37° C.

Neurospora crassa = assay: Antifungal activity, inhibition of growth in liquid phase
Procedure: (§1) The antifungal activity was determined against Neurospora crassa and Fusarium oxysporum by a test of inhibition of growth in liquid phase. 80 μl of fungal spores (final concentration: 10^4 spores/ml) are suspended in ½ Potato Dextrose Broth (DIFCO) supplemented with tetracycline (10 μg/ml) and cefotaxime (100 μg/ml). This suspension was added to 10 μl of the fraction to be tested in microtitre plates. The final volume is brought to 100 μl by addition of 10 μl of water. Growth inhibition can be observed under a microscope after 24 hours of incubation at 25° C. in the dark, and measured by the variation in the optical density at 600 nm after 48 hours.

Fusarium oxysporum = assay: as above
Procedure: as §1

Escherichia coli D31 = assay: Antibacterial assay, inhibition of growth in liquid phase (MIC); conditions: Escherichia coli D31, 24 h at 30° C.
Procedure: The bacteria are cultured with a starting optical density A600=0.001 in “Poor-Broth” nutrient medium (1% bactotryptone, 0.5% NaCl w/v).
The fractions were tested by inhibition of growth in liquid phase.
10 μl aliquots of each fraction to be tested are incubated in microtitre plates with 100 μl of a suspension of bacteria at the midlogarithmic phase.
The bacterial growth is measured by determining the optical density A600 after an incubation of 24 hours at 30° C.
An identical procedure was used to determine the minimum inhibitory concentration (MIC) of the molecules on these bacterial strains. The MIC values correspond to an interval a-b of peptide concentrations, where a represents the highest concentration at which bacterial growth is observed, and b is the lowest concentration which causes 100% inhibition of growth.

B1: Penaeidin 3: antimicrobial peptide of 62 amino acids, about 6.6 kDa, from Penaeus vannamei haemolymph (protein, listed as Penaeus vannamei)
chain: EVYKGGYTRPIPRPPPFVRPLPGGPIGPYNGCPVSCRGISFSQARSCCSRLGRCCHVGKGYS
B1 was tested, and the “colonies formed (cfu)” value (Micrococcus luteus; incubation time 1 min) was 4.30 10^4 cfu/ml, the “colonies formed (cfu)” value (Micrococcus luteus; incubation time 30 min) was 4.45 10^4 cfu/ml and the “colonies formed (cfu)” value (Micrococcus luteus; incubation time 2 h) was 3.15 10^4 cfu/ml. The “colonies formed (cfu)” value (Micrococcus luteus; incubation time 4 h) was 4.60 10^4 cfu/ml, the “colonies formed (cfu)” value (Micrococcus luteus; incubation time 7 h) was 4.50 10^4 cfu/ml and the “colonies formed (cfu)” value (Micrococcus luteus; incubation time 24 h) was 5.60 10^4 cfu/ml. The bacterial growth (Micrococcus luteus; 18 μM, after an incubation of 24 hours) was “no bacterial growth is observed”, the “kind of antibacterial effect” value (Micrococcus luteus; 18 μM, number of colonies constant over sample collections) was “bacteriostatic effect” and the MIC (Neurospora crassa) was over 5 µM. The MIC (Fusarium oxysporum) was over 5 µM and the MIC (Escherichia coli D31) was over 5 µM.

— patent US6642203B1, “Crustacean antimicrobial peptides” (Institut Francais de Recherche pour l'Exploitation de la Mer, priority 1997, dated 2003)
